T1: human EpCAM on COLO-205 cells (human, UniProt P16422 24-314)
T1 sequence (looked up): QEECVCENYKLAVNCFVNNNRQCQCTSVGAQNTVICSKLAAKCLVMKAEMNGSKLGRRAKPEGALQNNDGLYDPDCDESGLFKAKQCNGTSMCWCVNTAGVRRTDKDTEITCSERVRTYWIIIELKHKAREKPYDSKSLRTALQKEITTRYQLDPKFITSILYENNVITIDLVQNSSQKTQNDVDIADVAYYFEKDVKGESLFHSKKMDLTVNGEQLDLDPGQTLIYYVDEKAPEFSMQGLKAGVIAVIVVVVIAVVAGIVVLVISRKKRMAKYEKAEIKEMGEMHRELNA

B1: EpCAM FN3 domain-MMAF conjugate of clone 639 (designed binder)
chain: MLPAPKNLVVSRVTEDSARLSWTAPDAAFDSFSISYRERSAWGEAIALVVPGSERSYDLTGLKPGIEYIVGIIGVKGGLRSNPLRADFTT
modifications: VC-MMAF (maleimide) on a cysteine; position of the cysteine not stated
B2: EpCAM FN3 domain-MMAF conjugate of clone 680 (designed binder)
chain: MLPAPKNLVVSRVTEDSARLSWTAPYAAFDSFAISYRERSREGEVIALTVPGSERSYDLTGLKPGTEYIVGILGVKGGRRSKPLRAQFTT
modifications: VC-MMAF (maleimide) on a cysteine; position of the cysteine not stated
B3: EpCAM binding FN3 domain clone 1420 (designed binder)
chain: MLPAPKNLVVSRVTEDSARLSWEGYRNNAHFDSFLIQYQESEKVGEAIVLTVPGSERSYDLTGLKPGTEYTVSIYGVVAAVPRNYYSNPLSAIFTT
notes: not shown: No entry is named H9
B4: EpCAM binding FN3 domain clone 639 (designed binder)
chain: B1 chain
notes: as for B3
B5: EpCAM binding FN3 domain clone 680 (designed binder)
chain: B2 chain
notes: as for B3
B6: EpCAM binding FN3 domain clone 1807 (designed binder)
chain: MLPAPKNLVVSRVTEDSARLSWTAPDAAFDSFYIRYYEGSGYGEAIVLTVPGSERSYDLTGLKPGTEYYVYIGGVKGGSPSSPLSAIFTTG
notes: as for B3
B7: EpCAM binding FN3 domain clone 1874 (designed binder)
chain: MLPAPKNLVVSRVTEDSARLSWTAPDAAFDSFKIGYWEWRKYGEAIELNVPGSERSYDLTGLKPGTEYRVLIYGVKGGAGSHPLRALFTT
notes: as for B3

Molecular target: T1, human EpCAM on COLO-205 cells
Assay: cell-based or functional assay

Row | Binder | IC50 of EpCAM FN3 domain-MMAF conjugate molecules in COLO-205 Cells (cell viability, Cell TiterGlo, 72 hours) [nM]
1 | B1 | 2.2
2 | B2 | 0.11

Molecular target: T1, human EpCAM on COLO-205 cells
Assay: flow cytometry, periplasmic extract of soluble Centyrin on COLO-205 (EpCAM+) cells
Description: (§1) Three rounds of CIS display panning on recombinant huEpCAM protein (R&D Systems) were performed using TCL23 as described previously. The output from Round 3 was amplified and cloned into phagemid vector containing truncated pIII. An additional 4 rounds of selection on recombinant protein human EpCAM and Colo 205 (positive cells) with negative selection on A375 (negative cells) was performed. After 4 rounds of selection on recombinant protein and Colo 205 cells, 96 individual clones were assayed for binding to Colo 205 cells by phage ELISA; EpCAM negative cells (A375) were used as a negative control. Phage binding was assessed using a labeled anti-M13 antibody. Clones that were positive by phage ELISA were subcloned into a bispecific Centyrin expression plasmid where the carboxy terminal domain was an albumin binding Centyrin (H9). Soluble Centyrins were expressed, recovered from periplasmic extracts and assessed for binding to Colo205 (EpCAM+) and A375 (EpCAM-) (Table 4).

Row | Binder | Mean BL-1 P.E. COLO-205
3 | B3 | 22600
4 | B4 | 10100
5 | B5 | 10400
6 | B6 | 12900
7 | B7 | 27100

Molecular target: T1, human EpCAM on COLO-205 cells
Assay: flow cytometry, ratio of the signal on COLO-205 (EpCAM+) to that on A375 (EpCAM-) cells
Description: as §1

Row | Binder | COLO-205/A375
8 | B3 | 25.8
9 | B4 | 11
10 | B5 | 11.9
11 | B6 | 4.4
12 | B7 | 12.1

Source: US12491255 (ARO BIOTHERAPEUTICS, dated 2025)
